Patent US20150011567

What was measured:
[1] = system: biotinylated H4-derived unphosphorylated peptide TVTAMDVVYALKRQGRT
[2] = system: biotinylated human histone H2B derived peptide KRSRKESYSVYVYKVL
[3] = system: purified human H2A recombinant protein (NEB)
[4] = system: purified human H2B recombinant protein (NEB)
[5] = system: purified human H3 recombinant protein (NEB)
[6] = biological target: purified human H4 recombinant protein (NEB) (UniProt P62805)

Chain of recombinant GST-WEE1 protein (Invitrogen) (chain, as listed by the source): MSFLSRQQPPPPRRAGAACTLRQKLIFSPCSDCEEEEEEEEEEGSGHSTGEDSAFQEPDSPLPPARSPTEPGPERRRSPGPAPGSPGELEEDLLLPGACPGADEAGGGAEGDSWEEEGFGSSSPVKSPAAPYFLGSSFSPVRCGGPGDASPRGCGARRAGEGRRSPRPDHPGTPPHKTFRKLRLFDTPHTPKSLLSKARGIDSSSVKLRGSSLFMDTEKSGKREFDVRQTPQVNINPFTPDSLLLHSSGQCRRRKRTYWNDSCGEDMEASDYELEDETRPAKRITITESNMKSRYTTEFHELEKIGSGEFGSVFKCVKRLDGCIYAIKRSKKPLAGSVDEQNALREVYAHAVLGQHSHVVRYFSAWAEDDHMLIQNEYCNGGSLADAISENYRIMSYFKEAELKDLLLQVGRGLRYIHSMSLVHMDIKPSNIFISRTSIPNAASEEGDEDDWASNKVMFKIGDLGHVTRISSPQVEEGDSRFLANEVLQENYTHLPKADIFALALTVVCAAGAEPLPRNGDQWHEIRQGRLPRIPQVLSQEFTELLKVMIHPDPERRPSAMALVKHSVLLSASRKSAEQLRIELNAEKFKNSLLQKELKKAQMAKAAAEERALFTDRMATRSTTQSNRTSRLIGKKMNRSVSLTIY

Row | Substance | in vitro kinase assay on plate-bound peptide, ELISA with pY88-H4 antibodies [1] | Peptide Immunosandwich Assay (PIA), H2B Tyr37-phosphorylation read at 450 nm [2] | in vitro kinase assay, immunoblot with pTyr37-H2B antibody [3] | in vitro kinase assay, immunoblot with pTyr37-H2B antibody [4] | in vitro kinase assay, immunoblot with pTyr37-H2B antibody [5] | in vitro kinase assay, immunoblot with pTyr37-H2B antibody [6]
1 | purified WEE1 protein (Examples 5 and 7) | Incubation of H4 peptide with WEE1 and Ack1 protein resulted in robust H4 Tyr88-phosphorylation | Purified WEE1 exhibited robust H2B Tyr37-phosphorylation | – | – | – | –
2 | recombinant GST-WEE1 protein (Invitrogen) | – | – | failed to phosphorylate other three core histones, H2A, H3 and H4 | When purified WEE1 and H2B were incubated, H2B was Tyr37-phosphorylated | failed to phosphorylate other three core histones, H2A, H3 and H4 | failed to phosphorylate other three core histones, H2A, H3 and H4
